Here are results for three molecules from article PMC13334617.

Several values for one entry are separate records, joined by “and”; a condition that tells them apart may be missing. Identical values can stand only once.

For assay [1], the target named is ACM2 variant of AC fused to GFP (ACM2-GFP), encoded by plasmid pACM2-Gfp (Bordetella pertussis | not stated) (UniProt P0DKX7). Description: two-hybrid.
The target in assay [2] is ACM1 variant of AC fused to GFP (ACM1-GFP), encoded by plasmid pACM1-Gfp (Bordetella pertussis | not stated) (UniProt P0DKX7). Description: two-hybrid.

B1: CaM fused to the V9A nanobody at its N-terminus and a tetra-cysteine tag at its C-terminus (CaM-V9A) (VHH)
VHH: DVQLQESGGGSVQAGGSLRLSCAASGDTFSSYSMAWFRQAPGKECELVSNILRDGTTTYAGSVKGRFTISRDDAKNTVYLQMVNLKSEDTARYYCAADSGTQLGYVGAVGLSCLDYVMDYWGKGTQVTVSS
In assay [1], B1 had a cAMP above 60 nmol/mg and a ß gal (Rel. Units) of 78 Rel. Units. Moreover, in assay [2], the cAMP was above 50 nmol/mg and the ß gal (Rel. Units) was found to be 26 Rel. Units.

B2: CaM fused to the V9A nanobody at its N-terminus, with a C-terminal AviTag (CaM-V9A), encoded by plas (VHH)
VHH: DVQLQESGGGSVQAGGSLRLSCAASGDTFSSYSMAWFRQAPGKECELVSNILRDGTTTYAGSVKGRFTISRDDAKNTVYLQMVNLKSEDTARYYCAADSGTQLGYVGAVGLSCLDYVMDYWGKGTQVTVSS
Consider B2, for which the ß gal (Rel. Units) is 57 Rel. Units and 23 Rel. Units in assay [1]; 4 Rel. Units in assay [2].

B3: CaM fused to the V1K nanobody at its N-terminus, with a C-terminal AviTag (CaM-V1K), encoded by plasmid pK1Cam-V1K (VHH)
VHH: QVQLVESGGALVQPGGSLRLSCAASGFPVNRYSMRWYRQAPGKEREWVAGMSSAGDRSSYEDSVKGRFTISRDDARNTVYLQMNSLKPEDTAVYYCNVNVGFEYWGQGTQVTVSS
In assay [1], B3 displayed a ß gal (Rel. Units) of 74 Rel. Units.
